Measured values: PMC13313556, “Development and characterization of triazole-based WDR5 inhibitors for the treatment of glioblastoma” (JCI Insight, 2026)

Target: His6-SUMO-WDR5 (recombinant human WD-repeat containing protein 5, residues Ser22-Cys334) (human, UniProt P61964 22-334)
Assay: AlphaScreen or HTRF; competitive TR-FRET: 1 nM LanthaScreen Elite Tb-anti-His antibody, 150 nM 10-mer-Thr-FAM peptide, 2 nM His6-SUMO-WDR5 in 1X PBS pH 7.2, 300 mM NaCl, 0.5 mM TCEP, 0.1% CHAPS; 1 hour at room temperature; small-molecule inhibitors titrated to displace the peptide
Conditions: both partners purified

B1: 10-mer-Thr-FAM peptide probe (ARTEVHLRKS-[Ahx-Ahx][Lys-(5-FAM)]) (peptide)
peptide: ARTEVHLRKS
modifications: C-terminal Ahx-Ahx followed by Lys-(5-FAM)
notes: WIN-site peptide probe; After the ten printed residues come two aminohexanoic acid (Ahx) units and a lysine that carries 5-FAM; also called labeled WIN-site peptide; labeled WIN-peptide; source: synthetic peptide (GenScript)
B1: binds.
